Reference: paper doi:10.1101/2020.09.30.318972 (bioRxiv, 2020)

B1: LY-CoV555 (antibody, V domains shown)
VH: QVQLVQSGAEVKKPGSSVKVSCKASGGTFSNYAISWVRQAPGQGLEWMGRIIPILGIANYAQKFQGRVTITADKSTSTAYMELSSLRSEDTAVYYCARGYYEARHYYYYYAMDVWGQGTAVTVSS
VL: not shown
B2: LY-CoV555 Fab (Fab, V domains shown)
VH: B1 VH
VL: not shown

Tests used:
[1] = target: T1, SARS-CoV-2 spike protein receptor-binding domain (SARS-CoV-2, UniProt P0DTC2); assay: SPR
[2] = target: T1, SARS-CoV-2 spike protein …; assay: crystal structure

Binder	binding result [1]	binding result [2]
B1	binds	–
B2	–	binds
